The experiment deals with mCherry-labeled WASp (Drosophila melanogaster). Put plainly: FRET or BRET. For orientation: In BRET a luciferase serves as donor, and the signal depends on an acceptor being close.

Turning to “eGFP-labeled Cdc42 (from UniProt P40793 1-191) (natural protein)”, the FRET probability was 0.24.

For the origin of these results see article doi:10.1101/743492.
